Earlier results, collected in article PMC5989558.

Molecular target: CD80 (Homo sapiens) (UniProt P33681)
UniProt P33681, sequence (P33681 35-242): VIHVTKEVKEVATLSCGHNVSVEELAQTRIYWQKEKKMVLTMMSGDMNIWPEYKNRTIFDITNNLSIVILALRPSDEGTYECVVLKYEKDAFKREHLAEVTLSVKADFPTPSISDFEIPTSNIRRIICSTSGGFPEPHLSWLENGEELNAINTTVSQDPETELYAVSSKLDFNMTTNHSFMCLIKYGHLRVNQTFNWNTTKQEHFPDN

Kd: 20 µM
Substance: CD28 (from UniProt P10747)
